For orientation: Kd means the equilibrium constant for the complex coming apart. Usually koff stands for a measure of how fast the partners let go of each other. The term kon denotes the rate constant with which the complex forms.

The results in this text go back to US20240141042A1 (INNATE PHARMA, published 2024).

Substitutions are numbered along the chain they refer to. In names and notes the source's numbering stands. Where two headings read alike, the source gives them in different places.

Assay [1] concerns the target T1, human NKp46 expressed at the cell surface (human, UniProt O76036 22-304).
T1 construct: Wild-type NKp46 on cells (transfected cell lines or NK cells); also called cell line expressing the human NKp46 construct; NKp46 cell line
Kind of assay: flow cytometry on HEK293T cells transfected with wild-type NKp46, antibody titrated 0.001-1 ug/ml. On the technique in general: Flow cytometry measures light scatter and fluorescence of single cells or particles in a stream.

A further assay deals with T2, NKp46 mutant 19 (human, UniProt O76036 22-304).
T2 construct: Expressed in transfected HEK293T cells
T2 chain: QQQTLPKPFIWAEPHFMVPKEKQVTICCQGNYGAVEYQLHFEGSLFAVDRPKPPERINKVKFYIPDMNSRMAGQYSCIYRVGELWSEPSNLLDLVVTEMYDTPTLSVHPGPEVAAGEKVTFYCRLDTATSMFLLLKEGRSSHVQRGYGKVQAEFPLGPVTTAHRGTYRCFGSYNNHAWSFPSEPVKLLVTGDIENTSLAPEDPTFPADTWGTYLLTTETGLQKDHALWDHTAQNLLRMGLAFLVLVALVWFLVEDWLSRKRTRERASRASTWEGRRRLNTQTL
Kind of assay: flow cytometry on HEK293T cells transfected with NKp46 mutant 19 (I135A, S136A), antibody titrated 0.001-1 ug/ml.

In assay [2] the target is T1, human NKp46 expressed at the cell …. Nature of the assay: flow cytometry on HEK293T cells transfected with wild-type NKp46, antibody titrated 0.001-1 ug/ml. This is another data set of the same source.
Another assay has as its target T3, NKp46 mutant 6 (human, UniProt O76036 22-304).
T3 construct: Expressed in transfected HEK293T cells
T3 chain: T2 chain with R80A, V81A, A114I, A115S
Kind of assay: flow cytometry on HEK293T cells transfected with NKp46 mutant 6 (R101A, V102A), antibody titrated 0.001-1 ug/ml.

For the next assay, the target named is T4, NKp46 mutant 2 (human, UniProt O76036 22-304).
T4 construct: Expressed in transfected HEK293T cells
T4 chain: T2 chain with K20S, E21A, E98A, A114I, A115S
Kind of assay: flow cytometry on HEK293T cells transfected with NKp46 mutant 2 (K41S, E42A, E119A), antibody titrated 0.001-1 ug/ml. The protocol: All the anti-NKp46 antibodies were tested for their binding to each mutant by flow cytometry. A first experiment was performed to determine antibodies that lose their binding to one or several mutants at one concentration (10 μg/ml).

The target in the next assay is T5, NKp46 mutant Supp7 (human, UniProt O76036 22-304).
T5 construct: Expressed in transfected HEK293T cells; also called supplementary mutant Supp7
T5 chain: T2 chain with Y100A, A114I, A115S, Y173A
Nature of the assay: flow cytometry on HEK293T cells transfected with NKp46 mutant Supp7 (Y121A, Y194A; printed 'Mutant S7'), antibody titrated 0.001-1 ug/ml.

The target in the next assay is T6, NKp46 mutant Supp8 (human, UniProt O76036 22-304).
T6 construct: Expressed in transfected HEK293T cells; also called supplementary mutant Supp8
T6 chain: T2 chain with P111A, E112A, A114I, A115S
Kind of assay: flow cytometry on HEK293T cells transfected with NKp46 mutant Supp8 (P132A, E133A; printed 'Mutant S8'), antibody titrated 0.001-1 ug/ml.

The target of another assay is T7, NKp46 mutant Supp6 (human, UniProt O76036 22-304).
T7 construct: Expressed in transfected HEK293T cells; also called supplementary mutant Supp6
T7 chain: T2 chain with E83A, L84A, A114I, A115S
Nature of the assay: flow cytometry on HEK293T cells transfected with NKp46 mutant Supp6 (E104A, L105A; printed 'Mutant S6'), antibody titrated 0.001-1 ug/ml.

Assay [3] concerns the target T8, Human NKp46 recombinant proteins (human, UniProt O76036 22-258).
T8 construct: also called recombinant human NKp46 proteins
Nature of the assay: SPR, antibody captured on Protein-A chip, human NKp46 injected, 1:1 kinetic model. A general note: In SPR one partner is held on a chip, and binding of the other changes the refractive index at the surface.

The target of the next assay is T9, human FcRn (Example 10) (human, UniProt P55899 24-297; P61769 21-119, limits assumed).
T9 construct: Construct not described; Beta-2-microglobulin is not mentioned; also called recombinant FcRn proteins
T9 sequence (P55899 24-297 limits assumed, form in doubt, chain 1 of 2): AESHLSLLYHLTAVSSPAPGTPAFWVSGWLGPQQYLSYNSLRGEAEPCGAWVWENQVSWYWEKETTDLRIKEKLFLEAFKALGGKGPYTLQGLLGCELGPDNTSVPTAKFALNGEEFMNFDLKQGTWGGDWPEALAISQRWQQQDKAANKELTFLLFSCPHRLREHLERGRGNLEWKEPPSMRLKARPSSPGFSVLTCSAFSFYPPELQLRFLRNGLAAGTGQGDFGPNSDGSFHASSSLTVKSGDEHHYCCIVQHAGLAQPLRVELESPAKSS
T9 sequence (P61769 21-119 limits assumed, form in doubt, chain 2 of 2): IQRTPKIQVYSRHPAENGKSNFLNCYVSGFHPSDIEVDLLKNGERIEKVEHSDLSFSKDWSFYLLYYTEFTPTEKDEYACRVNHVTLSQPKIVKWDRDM
Kind of assay: SPR, FcRn immobilized on CM5, SCK/Two state reaction. The protocol: SPR measurements were performed on a Biacore T100 apparatus (Biacore GE Healthcare) at 25° C. In all Biacore experiments Acetate Buffer (50 mM Acetate pH5.6, 150 mM NaCl, 0.1% surfactant p20) and HBS-EP+ (Biacore GE Healthcare) served as running buffer and regeneration buffer respectively. Sensorgrams were analyzed with Biacore T100 Evaluation software. Recombinant mouse FcRn was purchase from R&D Systems.
Recombinant FcRn proteins were immobilized covalently to carboxyl groups in the dextran layer on a Sensor Chip CM5. The chip surface was activated with EDC/NHS (N-ethyl-N′-(3-dimethylaminopropyl) carbodiimidehydrochloride and N-hydroxysuccinimide (Biacore GE Healthcare)). FcRn proteins were diluted to 10 μg/ml in coupling buffer (10 mM acetate, pH 5.6) and injected until the appropriate immobilization level was reached (i.e. 2500 RU). Deactivation of the remaining activated groups was performed using 100 mM ethanolamine pH 8 (Biacore GE Healthcare).

Assay [4] concerns the target T8, Human NKp46 recombinant proteins. Kind of assay: SPR, bispecific captured on Protein-A chip, human NKp46 injected, 1:1 kinetic model. As to the method: SPR measurements were performed on a Biacore T100 apparatus (Biacore GE Healthcare) at 25° C. In all Biacore experiments HBS-EP+(Biacore GE Healthcare) and NaOH 10 mM served as running buffer and regeneration buffer respectively. Sensorgrams were analyzed with Biacore T100 Evaluation software. Protein-A was purchase from (GE Healthcare). Human NKp46 recombinant proteins were cloned, produced and purified at Innate Pharma.
Protein-A proteins were immobilized covalently to carboxyl groups in the dextran layer on a Sensor Chip CM5. The chip surface was activated with EDC/NHS (N-ethyl-N′-(3-dimethylaminopropyl) carbodiimidehydrochloride and N-hydroxysuccinimide (Biacore GE Healthcare)). Protein-A was diluted to 10 μg/ml in coupling buffer (10 mM acetate, pH 5.6) and injected until the appropriate immobilization level was reached (i.e. 2000 RU). Deactivation of the remaining activated groups was performed using 100 mM ethanolamine pH 8 (Biacore GE Healthcare).
Monovalent affinity study was done following a regular Capture-Kinetic protocol recommended by the manufacturer (Biacore GE Healthcare kinetic wizard). Seven serial dilutions of human NKp46 recombinant proteins, ranging from 6.25 to 400 nM were sequentially injected over the captured Bi-Specific antibodies and allowed to dissociate for 10 min before regeneration. The entire sensorgram sets were fitted using the 1:1 kinetic binding model.

B1: NKp46-4 (antibody, V domains shown)
VH: QVQLQQSAVELARPGASVKMSCKASGYTFTSFTMHWVKQRPGQGLEWIGYINPSSGYTEYNQKFKDKTTLTADKSSSTAYMQLDSLTSDDSAVYYCVRGSSRGFDYWGQGTLVTVSA
VL: DIQMIQSPASLSVSVGETVTITCRASENIYSNLAWFQQKQGKSPQLLVYAATNLADGVPSRFSGSGSGTQYSLKINSLQSEDFGIYYCQHFWGTPRTFGGGTKLEIK
notes: also called Antibody NKp46-4
Turning to B1, the binding result (in assay [1]; with NKp46 mutant 19) was “binds” in each case.

B2: NKp46-6 (antibody, V domains shown)
VH: QVQLQQPGSVLVRPGASVKLSCKASGYTFTSSWMHWAKQRPGQGLEWIGHIHPNSGISNYNEKFKGKATLTVDTSSSTAYVDLSSLTSEDSAVYYCARGGRFDDWGAGTTVTVSS
VL: DIVMTQSPATLSVTPGDRVSLSCRASQSISDYLHWYQQKSHESPRLLIKYASQSISGIPSRFSGSGSGSDFTLSINSVEPEDVGVYYCQNGHSFLMYTFGGGTKLEIK
notes: not in the list MOLECULES as an antibody; also called antibody NKp46-6; monoclonal antibody NKp46-6
For B2, the binding result (in assay [2]; with NKp46 mutant 6; in the assay with NKp46 mutant 19; with NKp46 mutant 2; with NKp46 mutant Supp7; with NKp46 mutant Supp8) was “binds” in each case. For the same molecule, the binding result in the assay with NKp46 mutant Supp6 was “binds”.

B3: NKp46-3 IgG1 (antibody, V domains shown)
VH: EVQLQQSGPELVKPGASVKISCKTSGYTFTEYTMHWVKQSHGKSLEWIGGISPNIGGTSYNQKFKGKATLTVDKSSSTAYMELRSLTSEDSAVYYCARRGGSFDYWGQGTTLTVSS
VL: DIVMTQSPATLSVTPGDRVSLSCRASQSISDYLHWYQQKSHESPRLLIKYASQSISGIPSRFSGSGSGSDFTLSINSVEPEDVGVYYCQNGHSFPLTFGAGTKLELK
notes: Chimeric full-length human IgG1; also called NKp46-3 antibody as a full-length human IgG1
Regarding B3, in [3], the Kd was determined as 20 nM, the koff amounted to 0.00433 s⁻¹ and the kon was determined as 222000 M⁻¹ s⁻¹. The binding result with NKp46 mutant 6 is “binds”. Besides, in the assay with NKp46 mutant 2, the binding result is on record as “binds”. In the assay with NKp46 mutant Supp7, the binding result was “binds”.

B4: NKp46-2 (antibody, human IgG1, V domains shown)
VH: EVQLQESGPGLVKPSQSLSLTCTVTGYSITSDYAWNWIRQFPGNKLEWMGYITYSGSTSYNPSLESRISITRDTSTNQFFLQLNSVTTEDTATYYCARGGYYGSSWGVFAYWGQGTLVTVSA
VL: DIQMTQSPASLSASVGETVTITCRVSENIYSYLAWYQQKQGKSPQLLVYNAKTLAEGVPSRFSGSGSGTQFSLKINSLQPEDFGSYYCQHHYGTPWTFGGGTKLEIK
notes: also called parental human IgG1 chimeric antibody NKp46-2
As to B4, the binding result (in assay [2]; with NKp46 mutant 19; with NKp46 mutant 2; with NKp46 mutant Supp7; with NKp46 mutant Supp8) was “binds” in each case.

B5: CD19-F5-NKp46-3 (bispecific antibody, human IgG1, kappa)
chain 1: not shown
chain 2: not shown
chain 3: DIVMTQSPATLSVTPGDRVSLSCRASQSISDYLHWYQQKSHESPRLLIKYASQSISGIPSRFSGSGSGSDFTLSINSVEPEDVGVYYCQNGHSFPLTFGAGTKLELKASTKGPSVFPLAPSSKSTSGGTAALGCLVKDYFPEPVTVSWNSGALTSGVHTFPAVLQSSGLYSLSSVVTVPSSSLGTQTYICNVNHKPSNTKVDKRVEPKSCDKTH
notes: Heterotrimer with dimeric Fc: first (170), second (169) and third (171) chain
Regarding B5, in the assay with human FcRn (Example 10), the Kd came out at 2.6 nM. Also, in [4], the Kd turned out to be 67 nM, the koff came to 0.0051 s⁻¹ and the kon came to 75600 M⁻¹ s⁻¹.

B6: CD19-F6-NKp46-3 (bispecific antibody, human IgG1, kappa)
chain 1: not shown
chain 2: not shown
chain 3: B5 chain 3
notes: As F5 but with N297S: first (173), second (172) and third (174) chain
Molecule B6 yielded a Kd in the assay with human FcRn (Example 10) of 6 nM. In [4], the Kd came out at 63 nM, the koff stood at 0.00503 s⁻¹ and the kon is 79300 M⁻¹ s⁻¹.
